# Assay results reported in patent US20060246095A1, “Multiepitope polypeptides for cancer immunotherapy” (HADASIT MEDICAL RESEARCH SERVICES & DEVELOPMENT LTD., priority 2003, published 2006).
# B1: Purified LTB (protein)
# chain: APQTITELCSEYRNTQIYTINDKILSYTESMAGKREMVIITFKSGETFQVEVPGSQHIDSQKKAIERMKDTLRITYLTETKIDKLCVWNNKTPNSIAAISMKN
# Tests used:
# DC = DC maturation in vitro (preliminary data); type: cell-based
# Text: A non-toxic form of LT (NLT) was produced by the present inventors. […] Thus, NLT and LTB could be developed as a delivery system for the presentation of tumor antigens to the immune system.
# [1] = LTB-MEP fusion protein functional assay (GM1 ganglioside ELISA, anti-MEP detection); type: binding; conditions: GM1 ganglioside coated plates, chicken anti-MEP antibodies
# Protocol: LTB-MEP fusion protein expressed by the recombinant pQE30-LTB-MEP construct was tested for its ability to bind GM1 ganglioside and anti-MEP antibodies. LTB-MEP fusion protein was incubated in ELISA plates coated with GM1 ganglioside (which binds to native LTB) with chicken anti-MEP antibodies.
# Only LTB-MEP molecules with functional LTB and MEP units can be detected by this assay. Boiled LTB-MEP protein losses its capability to bind to GM1 ganglioside and therefore could not be detected.
# A BamHI-HindIII fragment encoding for MEP (SEQ ID NO: 1) was attached to a KpnI-HindIII fragment encoding for LTB (SEQ ID NO: 52) through a polynucleotide linker. The ligated product was cloned into pQE30 vector and transformed into E. Coli (JM109 strain). LTB-MEP fusion protein expressed in bacteria, was purified and further characterized by ELISA assay. Ganglioside GM1 coated plates were incubated at 37° C. in the presence of native or boiled LTB-MEP fusion protein, purified LTB and pQE30 DNA expression vector (without insert) molecules. […] LTB molecule is sensitive to temperature and heat treatment destroys its capability to bind to GM1 ganglioside. Since binding detection was performed using chicken anti-MEP antibodies only active LTB-MEP fusion protein could be detected.
molecule,measurement,setting,value
B1,DC maturation,DC,induce DC maturation in vitro
same,OD 450 nm,[1]; treatment 37° C.,1.05
same,OD 450 nm,[1]; treatment Boiled,0.98
